Patent US20250290928A1, “METHOD, KIT AND DEVICE FOR DETECTING EXTRACELLULAR VESICLES” (priority 2022, published 2025)
*: point of attachment. 5FAM = O=C1OC2(c3ccc(O)cc3Oc3cc(O)ccc32)c2ccc(C(=O)*)cc21; TQ2 = quencher

Assays:
[1] = target: T1, MMP14 in the MDA-MB-231-derived extracellular vesicles (Homo sapiens, UniProt P50281); experiment: Digital detection of MDA-MB-231-derived extracellular vesicles through MMP14 activity in wells (microcompartments); format: biochemical
T1 construct: in terms of intact MMP14 with a molecular weight of 70 kDa
Protocol: The concentration of the solution is 6.7 μg/mL.
100 μL of the MMP14 detection solution was added to 100 μL of the sample to provide a reaction solution for wells. […] 100 μL of 200 μL of the prepared reaction solution for wells was used in the measurement of MMP14 activity with a 96-well plate.
Next, the wells were filled with the reaction solution by leaving the well array 200 to stand under reduced pressure to degas the space 205. After that, the space 205 was fed with hydrophobic solvents to be sealed. Fluorinated oils AsahiKlin AE-3000 (manufactured by AGC Inc.) and Fomblin Y-25 (manufactured by Solvay S.A.) were used as the hydrophobic solvents. A fluorinated oil Simoa (trademark) SR-X Sealing Oil: 102767 (manufactured by Quanterix Corporation) was further used as another hydrophobic solvent.
Well diameter: 4.25 μm Well depth: 3.25 μm Well capacity: 50 fL Number of wells in array: 239,000 Array range: 3 mm×4 mm
The concentration of the solution is 20 μg/mL. […] The concentration of the solution was set to x1, and 10-fold serial dilution was performed to prepare standard samples with five concentrations.
Next, the wells were filled with the reaction solution by leaving the well array 200 to stand under reduced pressure to degas the space 205. After that, the space 205 was fed with hydrophobic solvents to be sealed.
The concentration of the solution is 20 μg/mL. […] The concentration of the solution was set to x1, and 3-fold serial dilution was performed to prepare standard samples with three concentrations.
The concentration of the solution is 20 μg/mL. […] The concentration of the solution was set to x1, and 2-fold serial dilution was performed to prepare standard samples with four concentrations.
The concentration of the solution is 5 μg/mL.
50 μL of the MMP14 detection solution was added to 50 μL of the sample to provide a reaction solution for wells.
50 μL of each of the MMP14 detection solutions was added to 50 μL of the sample to provide a reaction solution for wells.
The concentration of the solution is 6.7 µg/mL.

[2] = target: T1, MMP14 in the MDA-MB-231-derived extracellular vesicles; experiment: Evaluation of MMP14 activity of MDA-MB-231-derived extracellular vesicles with 96-well plate; format: biochemical; conditions: 37° C.; for reaction rate per 1 μg/mL of extracellular vesicles: within 1 hour
Protocol: A relative fluorescence unit difference ΔRFU was calculated by subtracting the measured value of the sample for BG measurement from the measured value of each of the samples.
The concentration of the solution is 41.7 μg/mL. The concentration of the solution was set to x1, and 2-fold serial dilution was performed to prepare standard samples with six concentrations.
50 μL of the MMP14 detection solution was added to 50 μL of each of the samples, a reaction was performed at 37° C., and MMP14 activity was evaluated.
The concentration of the solution is 10 μg/mL.
50 μL of each of the MMP14 detection solutions was added to 50 μL of each of the samples, a reaction was performed at 37° C., and MMP14 activity was evaluated. […]
The concentration of the solution is 20 μg/mL. The concentration of the solution was set to x1, and 3-fold serial dilution was performed to prepare standard samples with three concentrations.
The concentration of the solution is 8 μg/mL.
50 μL of each of the MMP14 detection solutions was added to 50 μL of the sample, a reaction was performed at 37° C., and MMP14 activity was evaluated. […]
50 μL of the MMP14 detection solution was added to 50 μL of each of the samples, a reaction was performed at 30° C., and MMP14 activity was evaluated.
The MMP14 activity of the extracellular vesicles was evaluated with a 96-well plate (137101). A fluorescence intensity was measured with a fluorescence plate reader (Synergy) at 30° C. every 5 minutes for 2 hours. For measurement wavelengths, an excitation wavelength of 545±20 nm and a fluorescence wavelength of 588±20 nm were used. A relative fluorescence unit difference (ΔRFU) was calculated by subtracting the measured value of the sample for BG measurement from the measured value of each of the samples.
50 μL of each of the MMP14 detection solutions was added to 50 μL of each of the samples, a reaction was performed at 30° C., and MMP14 activity was evaluated.

[3] = Example 18, 78.5 fL wells, EV 3.3 μg/mL, reporter 5 μM, 37° C., 3 hours, oil AE-3000 and Y25
[4] = Example 18, 78.5 fL wells, EV 3.3 μg/mL, reporter 5 μM, 37° C., 3 hours, oil Simoa
[5] = Example 19, 37° C., 3 h, EV 0.0001 a.u. (x1=10 μg/mL)
[6] = Example 19, 37° C., 3 h, EV 0.001 a.u. (x1=10 μg/mL)
[7] = Example 19, 37° C., 3 h, EV 0.01 a.u. (x1=10 μg/mL)
[8] = Example 19, 37° C., 3 h, EV 0.1 a.u. (x1=10 μg/mL)
[9] = Example 19, 37° C., 3 h, EV 1 a.u. (x1=10 μg/mL)
[10] = Example 19, 37° C., 7 h, EV 0.0001 a.u. (x1=10 μg/mL)
[11] = Example 19, 37° C., 7 h, EV 0.001 a.u. (x1=10 μg/mL)
[12] = Example 19, 37° C., 7 h, EV 0.01 a.u. (x1=10 μg/mL)
[13] = Example 19, 37° C., 7 h, EV 0.1 a.u. (x1=10 μg/mL)
[14] = Example 19, 37° C., 7 h, EV 1 a.u. (x1=10 μg/mL)
[15] = Example 22, buffer (2), 37° C., 1 h, EV 0 (free of extracellular vesicles)
[16] = Example 22, buffer (2), 37° C., 1 h, EV 0.111 a.u.
[17] = Example 22, buffer (2), 37° C., 1 h, EV 0.333 a.u.
[18] = Example 22, buffer (2), 37° C., 1 h, EV 1 a.u. (x1=10 μg/mL)
[19] = Example 22, buffer (2), 37° C., 2 h, EV 0 (free of extracellular vesicles)
[20] = Example 22, buffer (2), 37° C., 2 h, EV 0.111 a.u.
[21] = Example 22, buffer (2), 37° C., 2 h, EV 0.333 a.u.
[22] = Example 22, buffer (2), 37° C., 2 h, EV 1 a.u. (x1=10 μg/mL)
[23] = Example 9, EV 4 μg/mL, buffer (3), Lineweaver-Burk plots

[5-FAM]GGPLGLAGGK(TQ2)[OH] (5FAM-GGPLGLAGGK(TQ2)-OH) [Custom #2]
Expected value λ [1, 3]: 0.235
Number of positives [1, 3]: 3,094
Positive ratio [1, 3]: 0.21
Expected value λ [1, 4]: 0.188
Number of positives [1, 4]: 2,529
Positive ratio [1, 4]: 0.171
Extracellular vesicle concentration ([1]; Example 18, oil AE-3000 and Y25): 9.1×10^8 /μg of protein
Extracellular vesicle concentration ([1]; Example 18, oil AE-3000 and Y25, reaction solution 3.3 μg of protein/mL): 3e+09 mL⁻¹
Extracellular vesicle concentration ([1]; Example 18, oil Simoa): 7.3×10^8 /μg of protein
Extracellular vesicle concentration ([1]; Example 18, oil Simoa, reaction solution 3.3 μg of protein/mL): 2.4e+09 mL⁻¹
Expected value λ [1, 5]: 0.000138
Number of positives [1, 5]: 4
Positive ratio [1, 5]: 0.000138
Expected value λ [1, 6]: 0.0011
Number of positives [1, 6]: 32
Positive ratio [1, 6]: 0.0011
Expected value λ [1, 7]: 0.00915
Number of positives [1, 7]: 264
Positive ratio [1, 7]: 0.00911
Expected value λ [1, 8]: 0.0827
Number of positives [1, 8]: 2,305
Positive ratio [1, 8]: 0.0794
Expected value λ [1, 9]: 0.717
Number of positives [1, 9]: 14,539
Positive ratio [1, 9]: 0.512
Expected value λ [1, 10]: 0.000104
Number of positives [1, 10]: 3
Positive ratio [1, 10]: 0.000104
Expected value λ [1, 11]: 0.000828
Number of positives [1, 11]: 24
Positive ratio [1, 11]: 0.000828
Expected value λ [1, 12]: 0.0092
Number of positives [1, 12]: 263
Positive ratio [1, 12]: 0.00916
Expected value λ [1, 13]: 0.0929
Number of positives [1, 13]: 2,571
Positive ratio [1, 13]: 0.0887
Expected value λ [1, 14]: 2.33
Number of positives [1, 14]: 26,093
Positive ratio [1, 14]: 0.902
Extracellular vesicle concentration ([1]; Example 19, 3 hours): 1.3×10^9 /μg of protein
Extracellular vesicle concentration ([1]; Example 19, 3 hours, reaction solution 10 μg of protein/mL, 50 fL): 1.3e+10 mL⁻¹
extracellular vesicles in which MMP14 activity can be detected, contained in 1 μL of the extracellular vesicles (50 μg of protein in 50 μL of PBS) ([1]; Example 19, 7 hours): 1.8×10^9
Extracellular vesicle concentration ([1]; Example 19, 7 hours, reaction solution 10 μg of protein/mL, 50 fL): 1.8e+10 mL⁻¹
λ at x1 from the approximation ([1]; Example 19, reaction time of 3 hours): 0.6727
λ at x1 from the approximation ([1]; Example 19, reaction time of 7 hours): 0.8756
expected value λ at x1 (power approximation) ([1]; Example 22, after 1 hour): 0.5098
expected value λ at x1 (power approximation) ([1]; Example 22, after 2 hours): 0.7649
Expected value λ [1, 15]: 0
Number of positives [1, 15]: 0
Positive ratio [1, 15]: 0
Expected value λ [1, 16]: 0.0648
Number of positives [1, 16]: 1,819
Positive ratio [1, 16]: 0.0627
Expected value λ [1, 17]: 0.193
Number of positives [1, 17]: 5,094
Positive ratio [1, 17]: 0.176
Expected value λ [1, 18]: 0.497
Number of positives [1, 18]: 11,360
Positive ratio [1, 18]: 0.392
Expected value λ [1, 19]: 0
Number of positives [1, 19]: 0
Positive ratio [1, 19]: 0
Expected value λ [1, 20]: 0.0988
Number of positives [1, 20]: 2,727
Positive ratio [1, 20]: 0.0941
Expected value λ [1, 21]: 0.267
Number of positives [1, 21]: 6,788
Positive ratio [1, 21]: 0.234
Expected value λ [1, 22]: 0.774
Number of positives [1, 22]: 15,608
Positive ratio [1, 22]: 0.539
extracellular vesicle concentration at which MMP14 activity was able to be detected in the microcompartments ([1]; Simoa Discs, buffer (4), reporter 5 μM, 37° C.): ≥ 1 ng/mL
increase in fluorescence intensity (temporal change) ([2]; Example 4, EV 5 μg/mL, reporter 5 μM, Assay buffer (Component D)): more significant than that from SensoLyte 520 MMP-14
reaction rate per 1 μg/mL of extracellular vesicles ([2]; Example 5, Assay buffer (Component D) of SensoLyte 520 MMP-14 Assay Kit, reporter 5 μM): 83.3 ΔRFU/min
reaction rate per 1 μg/mL of extracellular vesicles ([2]; Example 8, buffer (2), reporter 5 μM): 99.0 ΔRFU/min
Km [2, 23]: 0.511 µM
Vmax [2, 23]: 582.411 ΔRFU/min
extracellular vesicle concentration at which MMP14 activity was able to be detected with a 96-well plate ([2]; buffer (4), reporter 5 μM): ≥ 1 µg/mL
